# According to the nanobody polyreactivity screen of Harvey et al. (2022):
# Test: yeast display, Sf9 membrane polyspecificity reagent, FACS + sequencing; frameworks hold sequencing errors
# Procedure, shortened: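 Galactose-induced (36–48 hours) yeast carrying a synthetic nanobody display library were exposed to 10% biotinylated, detergent-solubilized Sf9 membrane reagent at 4 °C for 1 hour. FACS followed streptavidin microbead enrichment, using low and high (top ~1%) gates for expression (anti-HA) and reagent binding (streptavidin). Colony PCR, MiSeq 2 × 250 sequencing and CDR-length filtering followed. Labels for polyreactivity reflect the gate of origin.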
row,Sequence,polyreactivity (PSR sort gate)
1,QDQLVESGGGLVQAGGSLRLSCAASGITFFVYDMGWYRQAPGTERELVAAITWSGDSTYYADSVKGRFTISRDNAKNTVYLQMNSLKPEDTAVYYCAAQFDVYYSRQPYDYNRSGYWGQGTQVTVSS,low polyreactivity
2,QVQLVESGGGLVQAGGSLRLSCAASGFIFTHYAMGWYRQAPGKERELVAAISRRGGSTYYADSVKGRFTISRDNAKNTVYLQMNSLKPEDTAVYYCAADNYDAWYWDYYWGQGTQVTVSS,high polyreactivity
3,QVQLVESGGGLVQAGGSLRLSCAASGRIFRYYAMGWYRPAPGKERELVAGISSRGGSTYYADSVKGRFTISRDNAKNTVYLQMNSLKPEDTAVYYCAASPFHTVTPYGVVGRYDYWGQGTQVTVSS,high polyreactivity
4,QVQLVESGGGLVQAGGSLRLSCAASGRIFYYNAMGWYRQAPGKEWELVAAISSSGTTYYADSVKGRFTISRDNAKNTVYLQMNSLKPEDTAVYYCAAGSYWSPYGQSFWPKYDYWGQGTQVTVSS,high polyreactivity
5,QVQLVESGGGLVQAGGSLRLSCAASGSTLAKYAMGWYRQAPGKERELVAAISWSGGRTYYADSVKGRFTISRDNAKNTVYLQMNSLKPEDTAVYYCAARARSSRTYHDDYWGQGTQVTVSS,high polyreactivity
6,QVQLVESGGGLVQAGGSLRLSCAASGSTLSFYAMGWYRQAPGKERELVAAISYSTGTTYYADSVKGRFTISRDNAKNTVYLQMNSLKPEDTAVYYCAVYWQHNSTRYYYWGQGTQVTVSS,high polyreactivity
7,QVQLVESGGGLVQAGGSLRLSCAASGFNFYRYAMGWYRQAPGKERELVAVITGRGGTTYYSDSVKGRFTISRDNAKNTVYLQMNSLKTEDTAVYYCAAPQQQSWTYDGRYGYWGQGTKVTVSS,high polyreactivity
8,QVQLVESRGGLVQAGGSLRLSCAASGSTFTYYAMGWYRQAPGKERELVAAITFRGDSTYYADSVKVRFTISRDNAKNTVYFQMNSLKPEDTAVYYWGQGTQVTVSS,low polyreactivity
9,QVQLVESGGGLVQAGGSLRLSCAASGRIFSRYVMGWYRQAPGKERELVAAISGRATSTYYADSVKGRFTISRDNAKNTVYLQMNSLKPEDTAVYYCATGYKTYAVTLYDYWGQGTQVTVSS,high polyreactivity
10,QVQLVESGGGLVQAGGSLRLSCAASGFTVRKYAMGWYRQAPGKERELVAAITWSGGRTYYADSVKGRFTISRDNAKNTVSLQMNSLKPEDTAVYYCAAVIQSRKYDSWGQGTQVTVSS,high polyreactivity
11,QVQLVESGGGLVQAGGSLRLSCAASGSIFRYYAMGWYRQAPGKEREFVAAINTNDAGTYYADSVKGRFTISRDNAKNTVYLQMNSLKPEDTAVYYCAADTGYPFWYDYWGQGTQVTVSS,high polyreactivity
12,QVQLVESGGGLVQAGGSLRLSCAASGSILSTYAMGWYRQAPGKERELVASISSNAGSTYYADSVKGRFTISRDNAKNTVYLQMNSLKPEDTAVYYCNKDGKYHRVLYDYWGQGTQVTVSS,low polyreactivity
13,QVQLVESGGGLVQAGGSLRLSCAASGLISWLYVMGWYRQAPGKERELVAAIRYSGGRTYYADSVKGRFTISRDNAKNTVYLQMNSLKPEDTAVYYCAAEEQVVKAHGDYWGQGTQVTVSS,low polyreactivity
14,QVQLVESGGGLVQAGGSLRLSCAASGITFAGYAMGSDREAPGTERELVAAITRRGGITYYADSVKGRFTISRDNAKNTVYLQMNSLKPEDTAVYYCNAGRRVSTYGYWGQGTQVTVSS,high polyreactivity
15,QVQLVESGGGLVQAGGSLRLSCAASGRIFGYYSMGWYRQAPGKEREFVSTINSVGSTNYADSVKGRFTISRDNAKNTVYLKMNSLKAEDTAVYYGATDSAYTFFSYRLWRHGYWGQGTQVTVSS,low polyreactivity
16,QVQLVESGGCLVQAGGSHRLSCAASGRTFGYNAMGWYSQAPRKERELVAVIRSGGSTYYADSVKGRYTISRDNAKNTVYFQMNSLKPEDTAVYYCAATGLYNVTSPYSYKYDYWGQGTQVTVSS,low polyreactivity

row,Sequence,polyreactivity (PSR sort gate)
1,QVQLVESGGGLVQAGGSLRLSCAASGLIFVSYAMGWYRQEPGKERELVASITDSDSSTYYADSVKGRFTISRDNAKNTVYLQMNSLKPEDTAVYSCATGGRTEIWYPTLDYWGQGTQVTVSS,low polyreactivity
2,QVQLQESAGGLVQAGGSLRRSCAASGSIFSNCAMGWYRQTPGKERELVASITAGGNNNYADSVKGRFTISRDNAKNTVYLPMNSLKPEETAVYYCNRRYPGPDSFEHYYYYRYDYWGQGTQVTVSS,low polyreactivity
3,QVHLVESGGGLVQAGGSLRLSCAASGSIFKYYAMGWYRQAPGKETELVAAISSGGTTNYADSVKGRFTISRDNAKNTVYFQMNSLKPEDTEVYYCAAYSTYFRRRKWGYDYWGQGTQVTVSS,high polyreactivity
4,QVQLVESGGGLVQAGGSLRLSCAASGRIFRAYAMGWYRQAPGKERELVAAISSGGITSYADSVKGRFTISRDNAKNTVYLQMNSLKPEDTAVDYCAALVYPYWGGSMYYWGQGTQVTVSS,high polyreactivity
5,QVQLVESGGGLVQAGGSLRLSCAASGTIFRRSAMGWDRQAPGKERELVATITSTDSTNYADSVKGRFTISRDNAKNTVYLQMNSLKPEDTAVYYCAKRPYHYRRNSEYYYWGQGTQVTVSS,low polyreactivity
6,QVQLVESGGGLVQAGGSHRLSCAASGRIYYYTMGWYRQAPGKERELVATITSSGSSTYYADSVKGRFTISRDNAKNTFYLQLNRLKPEDTAVYYCAAAGGGVRKVWGGSRYGYWGQGTQVTVSS,high polyreactivity
7,QVQLVESGGGLVQAGGSLRLSCAASGSIFRRNVMGWYRQAPGKERELVAAITGSGGSTYYADSVKGRFTISRDNAKNTVYLQMNSLKPEDTAVYYCAKVPYYSRPHDYWGQGTQVTVSS,high polyreactivity
8,QVQLVESGGGLVQAGGSLRLSCAASGITFQKNAMGWDRPAPGKEMEWVAGITWRGSTYYADSVKGRFTISRDNAKNTVYLQMNSLKPEETAVYYCAADPFYWYRSVRGEYWGQGTQVTVSS,low polyreactivity
9,QVQLVESGGGLVQAGGSLRLSCAASGSTFYANAKGWYRQAPGKERELVAAISSTGGSTYYADSVKGRFTISRDNAKNTVYLQMNSLKPEDTAVYYCAARARWIVAYDLGYWGQGTQVTVSS,low polyreactivity
10,QVQLVESGGGLVQAGGSLRLSCAASGFIFYQYAMGWYRQAPGKERELVAAISTRGGSTYYADSVKGRFTISRDNAKNTVYLQMNSLKPEDTAVYYCAATVNARRVTRRYYWGQGTQVTVSS,high polyreactivity
11,QVQLEESGGGLVQAGGSLRLTCAASGSILVYNAMGWYRQAPGKERELVAGISSSGTRTYYADSVKGRFTISRDNAKITFYLQMNSLKPEDTAVYYCNALPVRGHQEYDSWGQGTQVNVSS,high polyreactivity
12,QVQLQESGGGLVQAGGSLRLSCAASGSIFHLHIMCWYRQAPGKERESVAAISYGTSTYYADSVKGRFTICRDNAKNTLYLQMNSPKPDDTAVYYCAALFLVSKHHHYWGEGTQVTVSS,low polyreactivity
13,QVQLVESGGGLVQAGGSLRLSCSASGSIFRGYTMGLYRQAPGKERELVAGITLRGVSTYYADSVKGRFTISRDNAKNTVYVQMNSLKPEDTAVYYGAVDYGRAVQGDSITYDFNYWGQGTQVTVSS,low polyreactivity
14,QVQLVESGGGLFQAGGSLRLICAASGLIINGNAMGWYRQAPGKERELVADITGSSVRTYYADSVKGRFTISRDNAKNTVYLQMNSLKPEDTAVYYCAKDPDKVDYVDMDYWGQGTQVTVSS,low polyreactivity
15,QVQLVESGGGLVQAGGSLRFSCAASGTFVPYAMGWYRQAPGKEMELVARITWRGGSTYYADSVKGRFTISRDNAKNTVYLQMNSLKPEDTAVYYCATVSDNRYYYWGQGSQVTVSS,low polyreactivity
